# Source: paper PMC9482650, “Quantitative fragmentomics allow affinity mapping of interactomes” (Nature Communications, 2022)
# T1: HTRA4, P83105
# T1 sequence (P83105 378-476, limits assumed, looked up): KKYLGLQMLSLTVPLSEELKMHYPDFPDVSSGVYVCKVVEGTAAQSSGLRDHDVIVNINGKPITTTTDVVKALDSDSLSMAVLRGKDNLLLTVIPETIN
# T2: FRMPD1, Q5SYB0
# T2 sequence (Q5SYB0 52-145, limits assumed, looked up): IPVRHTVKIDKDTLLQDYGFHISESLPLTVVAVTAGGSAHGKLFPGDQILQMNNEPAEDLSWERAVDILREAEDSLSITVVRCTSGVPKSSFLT
# T3: CARD11, Q9BXL7
# T3 sequence (Q9BXL7 662-765, limits assumed, looked up): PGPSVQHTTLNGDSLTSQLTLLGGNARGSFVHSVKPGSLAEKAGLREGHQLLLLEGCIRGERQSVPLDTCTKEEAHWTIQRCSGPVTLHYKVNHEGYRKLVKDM
# T4: APBA1_2, Q02410
# T4 sequence (Q02410 742-832, limits assumed, looked up): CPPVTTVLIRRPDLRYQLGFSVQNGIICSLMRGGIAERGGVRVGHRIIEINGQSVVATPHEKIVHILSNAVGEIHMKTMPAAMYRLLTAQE
# T5: PDZD7_3, Q9H5P4
# T5 sequence (Q9H5P4 857-944, limits assumed, looked up): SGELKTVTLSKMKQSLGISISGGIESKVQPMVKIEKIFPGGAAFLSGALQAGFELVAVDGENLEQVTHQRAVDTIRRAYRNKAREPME
# T6: SHANK1, Q9Y566
# T6 sequence (Q9Y566 658-767, limits assumed, looked up): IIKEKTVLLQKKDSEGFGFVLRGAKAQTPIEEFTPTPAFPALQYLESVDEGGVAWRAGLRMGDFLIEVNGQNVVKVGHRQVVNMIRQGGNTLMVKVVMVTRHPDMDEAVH
# T7: NHERF3_4, Q5T2W1
# T7 sequence (Q5T2W1 373-468, limits assumed, looked up): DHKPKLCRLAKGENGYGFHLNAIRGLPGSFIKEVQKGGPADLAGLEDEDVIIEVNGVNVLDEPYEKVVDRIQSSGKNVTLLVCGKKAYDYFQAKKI
# T8: PARD3B_1, Q8TEW8
# T8 sequence (Q8TEW8 196-299, limits assumed, looked up): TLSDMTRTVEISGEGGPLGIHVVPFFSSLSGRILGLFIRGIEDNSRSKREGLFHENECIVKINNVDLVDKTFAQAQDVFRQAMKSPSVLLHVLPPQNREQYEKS
# T9: GRIP1_4, Q9Y3R0
# T9 sequence (Q9Y3R0 467-571, limits assumed, looked up): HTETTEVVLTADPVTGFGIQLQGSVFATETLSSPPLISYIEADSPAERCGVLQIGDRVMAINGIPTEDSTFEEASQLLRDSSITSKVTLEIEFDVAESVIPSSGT
# T10: NHERF3_3, Q5T2W1
# T10 sequence (Q5T2W1 238-333, limits assumed, looked up): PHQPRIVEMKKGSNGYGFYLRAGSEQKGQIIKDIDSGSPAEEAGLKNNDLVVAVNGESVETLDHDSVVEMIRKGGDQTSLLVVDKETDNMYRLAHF
# T11: LIN7B, Q9HAP6
# T11 sequence (Q9HAP6 88-185, limits assumed, looked up): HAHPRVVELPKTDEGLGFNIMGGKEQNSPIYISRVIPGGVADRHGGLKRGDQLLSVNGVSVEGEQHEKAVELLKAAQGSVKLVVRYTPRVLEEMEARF
# T12: DVL3, Q92997
# T12 sequence (Q92997 244-331, limits assumed, looked up): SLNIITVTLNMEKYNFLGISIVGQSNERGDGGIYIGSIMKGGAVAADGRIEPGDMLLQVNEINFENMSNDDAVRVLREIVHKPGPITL
# T13: MPP2, Q14168
# T13 sequence (Q14168 180-250, limits assumed, looked up): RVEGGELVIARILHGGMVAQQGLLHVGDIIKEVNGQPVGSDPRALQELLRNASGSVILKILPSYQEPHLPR
# Target: GRIP2_4, Q9C0E4
# Sequence (Q9C0E4 446-548): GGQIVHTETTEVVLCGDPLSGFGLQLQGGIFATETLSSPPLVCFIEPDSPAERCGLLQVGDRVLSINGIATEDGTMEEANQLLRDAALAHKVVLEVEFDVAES
# Assay: holdup assay
# Design: key: below the threshold = too weak to quantify, mostly under pKd 3.1 to 4
# Conditions: plain residues with an end cap or a label only (N-terminal biotin on a linker: ahx)
row,pKd,Binder
1,below the threshold,"ADENEQVSAV [RAPGEF6, Q8TEU7]"

# Target: GOPC, Q9HD26
# Assay: holdup assay
# Design: key: below the threshold = too weak to quantify, mostly under pKd 3.1 to 4
# Conditions: plain residues with an end cap or a label only (N-terminal biotin on a linker: ahx)
row,pKd,Binder
1,below the threshold,"ADENEQVSAV [RAPGEF6, Q8TEU7]"

# Target: NHERF4_4, Q86UT5
# Sequence (Q86UT5 464-550): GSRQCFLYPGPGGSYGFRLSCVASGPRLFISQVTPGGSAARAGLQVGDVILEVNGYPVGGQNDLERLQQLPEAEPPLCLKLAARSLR
# Assay: holdup assay
# Design: key: below the threshold = too weak to quantify, mostly under pKd 3.1 to 4
# Conditions: plain residues with an end cap or a label only (N-terminal biotin on a linker: ahx)
row,pKd,Binder
1,below the threshold,"ADENEQVSAV [RAPGEF6, Q8TEU7]"

# Target: T1, HTRA4, P83105
# Assay: holdup assay
# Design: key: below the threshold = too weak to quantify, mostly under pKd 3.1 to 4
# Conditions: plain residues with an end cap or a label only (N-terminal biotin on a linker: ahx)
row,pKd,Binder
1,below the threshold,"ADENEQVSAV [RAPGEF6, Q8TEU7]"

# Target: T2, FRMPD1, Q5SYB0
# Assay: holdup assay
# Design: key: below the threshold = too weak to quantify, mostly under pKd 3.1 to 4
# Conditions: plain residues with an end cap or a label only (N-terminal biotin on a linker: ahx)
row,pKd,Binder
1,below the threshold,"ADENEQVSAV [RAPGEF6, Q8TEU7]"

# Target: T3, CARD11, Q9BXL7
# Assay: holdup assay
# Design: key: below the threshold = too weak to quantify, mostly under pKd 3.1 to 4
# Conditions: plain residues with an end cap or a label only (N-terminal biotin on a linker: ahx)
row,pKd,Binder
1,below the threshold,"ADENEQVSAV [RAPGEF6, Q8TEU7]"

# Target: T4, APBA1_2, Q02410
# Assay: holdup assay
# Design: key: below the threshold = too weak to quantify, mostly under pKd 3.1 to 4
# Conditions: plain residues with an end cap or a label only (N-terminal biotin on a linker: ahx)
row,pKd,Binder
1,3.94,"ADENEQVSAV [RAPGEF6, Q8TEU7]"

# Target: T5, PDZD7_3, Q9H5P4
# Assay: holdup assay
# Design: key: below the threshold = too weak to quantify, mostly under pKd 3.1 to 4
# Conditions: plain residues with an end cap or a label only (N-terminal biotin on a linker: ahx)
row,pKd,Binder
1,3.83,"ADENEQVSAV [RAPGEF6, Q8TEU7]"

# Target: GORASP2, Q9H8Y8
# Assay: holdup assay
# Design: key: below the threshold = too weak to quantify, mostly under pKd 3.1 to 4
# Conditions: plain residues with an end cap or a label only (N-terminal biotin on a linker: ahx)
row,pKd,Binder
1,below the threshold,"ADENEQVSAV [RAPGEF6, Q8TEU7]"

# Target: T6, SHANK1, Q9Y566
# Assay: holdup assay
# Design: key: below the threshold = too weak to quantify, mostly under pKd 3.1 to 4
# Conditions: plain residues with an end cap or a label only (N-terminal biotin on a linker: ahx)
row,pKd,Binder
1,3.88,"ADENEQVSAV [RAPGEF6, Q8TEU7]"

# Target: T7, NHERF3_4, Q5T2W1
# Assay: holdup assay
# Design: key: below the threshold = too weak to quantify, mostly under pKd 3.1 to 4
# Conditions: plain residues with an end cap or a label only (N-terminal biotin on a linker: ahx)
row,pKd,Binder
1,below the threshold,"ADENEQVSAV [RAPGEF6, Q8TEU7]"

# Target: T8, PARD3B_1, Q8TEW8
# Assay: holdup assay
# Design: key: below the threshold = too weak to quantify, mostly under pKd 3.1 to 4
# Conditions: plain residues with an end cap or a label only (N-terminal biotin on a linker: ahx)
row,pKd,Binder
1,below the threshold,"ADENEQVSAV [RAPGEF6, Q8TEU7]"

# Target: T9, GRIP1_4, Q9Y3R0
# Assay: holdup assay
# Design: key: below the threshold = too weak to quantify, mostly under pKd 3.1 to 4
# Conditions: plain residues with an end cap or a label only (N-terminal biotin on a linker: ahx)
row,pKd,Binder
1,below the threshold,"ADENEQVSAV [RAPGEF6, Q8TEU7]"

# Target: SCRIB_3, Q14160
# Sequence (Q14160 999-1103): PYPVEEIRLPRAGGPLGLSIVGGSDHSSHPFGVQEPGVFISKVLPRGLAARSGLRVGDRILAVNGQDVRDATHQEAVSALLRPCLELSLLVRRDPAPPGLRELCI
# Assay: holdup assay
# Design: key: below the threshold = too weak to quantify, mostly under pKd 3.1 to 4
# Conditions: plain residues with an end cap or a label only (N-terminal biotin on a linker: ahx)
row,pKd,Binder
1,below the threshold,"ADENEQVSAV [RAPGEF6, Q8TEU7]"

# Target: T10, NHERF3_3, Q5T2W1
# Assay: holdup assay
# Design: key: below the threshold = too weak to quantify, mostly under pKd 3.1 to 4
# Conditions: plain residues with an end cap or a label only (N-terminal biotin on a linker: ahx)
row,pKd,Binder
1,below the threshold,"ADENEQVSAV [RAPGEF6, Q8TEU7]"

# Target: TJP2_1, Q9UDY2
# Sequence (Q9UDY2 24-128): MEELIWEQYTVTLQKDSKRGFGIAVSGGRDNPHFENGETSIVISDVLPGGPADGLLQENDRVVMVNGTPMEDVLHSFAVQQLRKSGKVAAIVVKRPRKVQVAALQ
# Assay: holdup assay
# Design: key: below the threshold = too weak to quantify, mostly under pKd 3.1 to 4
# Conditions: plain residues with an end cap or a label only (N-terminal biotin on a linker: ahx)
row,pKd,Binder
1,below the threshold,"ADENEQVSAV [RAPGEF6, Q8TEU7]"

# Target: DLG1_3, Q12959
# Sequence (Q12959 457-571): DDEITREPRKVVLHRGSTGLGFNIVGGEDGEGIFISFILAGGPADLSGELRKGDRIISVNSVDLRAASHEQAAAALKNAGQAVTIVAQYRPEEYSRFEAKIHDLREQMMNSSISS
# Assay: holdup assay
# Design: key: below the threshold = too weak to quantify, mostly under pKd 3.1 to 4
# Conditions: plain residues with an end cap or a label only (N-terminal biotin on a linker: ahx)
row,pKd,Binder
1,below the threshold,"ADENEQVSAV [RAPGEF6, Q8TEU7]"

# Target: T11, LIN7B, Q9HAP6
# Assay: holdup assay
# Design: key: below the threshold = too weak to quantify, mostly under pKd 3.1 to 4
# Conditions: plain residues with an end cap or a label only (N-terminal biotin on a linker: ahx)
row,pKd,Binder
1,below the threshold,"ADENEQVSAV [RAPGEF6, Q8TEU7]"

# Target: T12, DVL3, Q92997
# Assay: holdup assay
# Design: key: below the threshold = too weak to quantify, mostly under pKd 3.1 to 4
# Conditions: plain residues with an end cap or a label only (N-terminal biotin on a linker: ahx)
row,pKd,Binder
1,below the threshold,"ADENEQVSAV [RAPGEF6, Q8TEU7]"

# Target: LDB3, O75112
# Sequence (O75112 1-94): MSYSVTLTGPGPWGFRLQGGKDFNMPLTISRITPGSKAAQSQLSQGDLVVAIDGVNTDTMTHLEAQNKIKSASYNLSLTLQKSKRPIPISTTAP
# Assay: holdup assay
# Design: key: below the threshold = too weak to quantify, mostly under pKd 3.1 to 4
# Conditions: plain residues with an end cap or a label only (N-terminal biotin on a linker: ahx)
row,pKd,Binder
1,below the threshold,"ADENEQVSAV [RAPGEF6, Q8TEU7]"

# Target: T13, MPP2, Q14168
# Assay: holdup assay
# Design: key: below the threshold = too weak to quantify, mostly under pKd 3.1 to 4
# Conditions: plain residues with an end cap or a label only (N-terminal biotin on a linker: ahx)
row,pKd,Binder
1,below the threshold,"ADENEQVSAV [RAPGEF6, Q8TEU7]"

# Target: LNX1_2, Q8TBB1
# Sequence (Q8TBB1 371-470): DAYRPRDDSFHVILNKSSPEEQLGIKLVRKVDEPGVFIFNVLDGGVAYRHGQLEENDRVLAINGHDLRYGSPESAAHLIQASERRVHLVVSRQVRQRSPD
# Assay: holdup assay
# Design: key: below the threshold = too weak to quantify, mostly under pKd 3.1 to 4
# Conditions: plain residues with an end cap or a label only (N-terminal biotin on a linker: ahx)
row,pKd,Binder
1,below the threshold,"ADENEQVSAV [RAPGEF6, Q8TEU7]"

# Target: PDLIM1, O00151
# Sequence (O00151 1-87): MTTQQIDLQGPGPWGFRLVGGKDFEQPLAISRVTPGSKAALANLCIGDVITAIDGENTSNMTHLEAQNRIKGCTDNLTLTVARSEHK
# Assay: holdup assay
# Design: key: below the threshold = too weak to quantify, mostly under pKd 3.1 to 4
# Conditions: plain residues with an end cap or a label only (N-terminal biotin on a linker: ahx)
row,pKd,Binder
1,below the threshold,"ADENEQVSAV [RAPGEF6, Q8TEU7]"

# Target: AHNAK1, Q09666
# Sequence (Q09666 4-100): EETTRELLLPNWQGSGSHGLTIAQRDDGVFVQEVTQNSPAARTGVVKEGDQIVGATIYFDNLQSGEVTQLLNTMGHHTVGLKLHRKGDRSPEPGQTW
# Assay: holdup assay
# Design: key: below the threshold = too weak to quantify, mostly under pKd 3.1 to 4
# Conditions: plain residues with an end cap or a label only (N-terminal biotin on a linker: ahx)
row,pKd,Binder
1,below the threshold,"ADENEQVSAV [RAPGEF6, Q8TEU7]"
